We go through one substance from publication PMC6162318.

Usually stoichiometry N stands for the number of molecules, sites or subunits per partner or assembly.

This assay concerns the target ELIC-α1GABAAR chimera (Erwinia chrysanthemi | human) (UniProt P0C7B7). Kind of assay: crystal structure.

“ELIC-α1GABAAR chimera (from UniProt P0C7B7 1-199) (receptor)” displayed a stoichiometry N of 5.
